{
  "source": "patent US20260176336A1",
  "about": "(MESTAG THERAPEUTICS, published 2026)",
  "binders": {"B1": {"name": "Clone 3.3 (antibody, V domains shown)", "VH": "QVQLVQSGTEVKKPGASVKVSCKASGYTFTGYYMNWVRQAPGQGLEWVGWINPNSGDTNFAQKFQGRVTMTRDSSISTAYMELSRLRSDDTAVYYCARQFRGYSYGYGMDVWGKGTTVTVSS", "VL": "DIQMTQSPSSLSASVGDRVTITCRASQNIGSYLNWYQQKPGKAPKLLIYAASSLQSGVPSRFSGSGSGTDFTLTISSLQPEDFATYYCQQANSFPFTFGPGTKVDIK", "notes": "anti-FAP mAb (bivalent)"}, "B2": {"name": "Clone 4.1 (bispecific antibody, human IgG1, kappa, L234A L235A)", "heavy 1": "not shown", "heavy 2": "QLQLQESGPGLVKPSETLSLTCTVSGGSISSSTYYWGWIRQPPGKGLEWIGSIFYSGNTYYNPSLKSRVTISVDTSKNHFSLKLSSVTAADTAVYYCAREIIEPRPGYFDYWGQGTLVTVSSASTKGPSVFPLAPSSKSTSGGTAALGCLVKDYFPEPVTVSWNSGALTSGVHTFPAVLQSSGLYSLSSVVTVPSSSLGTQTYICNVNHKPSNTKVDKKVEPKSCDKTHTCPPCPAPEAAGGPSVFLFPPKPKDTLMISRTPEVTCVVVDVSHEDPEVKFNWYVDGVEVHNAKTKPREEQYNSTYRVVSVLTVLHQDWLNGKEYKCKVSNKALPAPIEKTISKAKGQPREPQVCTLPPSRDELTKNQVSLSCAVKGFYPSDIAVEWESNGQPENNYKTTPPVLDSDGSFFLVSKLTVDKSRWQQGNVFSCSVMHEALHNHYTQKSLSLSPG", "light": "not shown", "notes": "FAP:LTBR 1:1 heterodimer of LTBR VHH (clone 1.6) paired with FAP Fab (clone 3.5), human IgG1 LALA"}, "B3": {"name": "Clone 4.14 (antibody, V domains shown)", "VH": "QVQLKESGPGLVQPSQTLSLTCTVSGFSLTTYSVHWVRQHSGKSLEWMGRMWTDGDTSYNSAFTSRLSISRDTSKSQVFLKMNSLQTEDTGTYYCARGYWYFDFWGPGTMVTVSS", "VL": "DVQMTQSPSYLAASPGESVSIRCKASKSISNNLAWYQEKPGKANKLLIHSGSTLQSGTPSRFSGSGSGTDFTLTIRSLEFEDFAVYYCQQYNEYPYTFGAGTKLELK"}},
  "key": {"[1]": {"target": "T1, human FAP expressed on cells (transfected HEK293; FAP-CHO-K1 recombinant cell line, BPS cat no. 79947) (human, UniProt Q12884 1-760)", "T1 construct": "also called HuFAP-HEK293; Hek-FAP", "assay": "flow cytometry, human FAP-transfected HEK293 cells", "procedure": "The binding of antibodies to human FAP expressed on transfected HEK293 cells was measured by FACS. In addition, binding to parental HEK293 was tested to confirm antibody specificity. In short, the cells were resuspended in the FACS binding buffer and live/dead efluro450 viability dye was added at a 1:1000 dilution to the cell suspension, followed by incubation at room temperature in the dark for 30 minutes. The cells were then diluted to 2 e5/ml, and 100 ul was added to wells of a 96-well U-bottom plate as required. […] The cells were pelleted by centrifugation, and the supernatant was discarded, followed by the addition of a series of dilutions of anti-FAP antibodies and incubation for 45 minutes at 4° C. in the dark. Cells were washed two times with PBS with 3% (w/v) BSA before adding 60 ul of fluorescently labelled secondary antibody (goat anti-human IgG) diluted to 1:200 in PBS. Incubation continued at 4 C for at least 30 minutes, followed by two washes in PBS pH 7.4. Cells were either fixed with 2% PFA (30 minutes at 4° C.) followed by washout and storage in 100 ul of PBS or immediately analysed on a Flow Cytometer. The data was analysed using FloJo V10 and GraphPad Prism. No binding to the HEK parental cell line was detected for any tested clones, confirming the specific interaction between anti-FAP antibodies and the FAP receptor. The results are summarised in."}, "[2]": {"target": "T2, cyno FAP His (Acro), recombinant protein (cynomolgus (Macaca fascicularis), UniProt Q12884 26-760 (human entry))", "T2 construct": "bought protein used as analyte on Carterra LSA", "assay": "SPR (Carterra LSA), antibody captured by anti-human Fc, FAP as analyte", "procedure": "(§1) Binding of anti-FAP antibodies to human and cynomolgus FAP was investigated by Surface Plasmon Resonance (SPR) on Carterra LSA. An EC30M chip was used to capture the test antibodies. The chip was activated for bioconjugation using EDC and sNHS in MES pH 5.5 to prepare the chip for amine coupling. Goat anti-human IgG Fc antibody was then captured to the chip via incubation for 10 minutes. Excess conjugation sites were quenched with 1M Ethanolamine pH 8. To measure monovalent binding kinetics, antibodies were printed/spotted onto the chip and allowed to bind to the goat antibody, followed by subsequent washing. After the preparation, the printed chip was exposed to repeated rounds of association and dissociation with increasing analyte concentrations. In this work, recombinant proteins (Human FAP (Acro) or cyno FAP His (Acro)) were serially diluted across a range starting at 1500 nM with 3-fold dilutions and 10 points. The curves were fitted to global fit in a 1:1 binding model to obtain KD values. The binding affinity to both human and cynomolgus FAP is reported in."}, "[3]": {"target": "Human FAP (Acro), recombinant protein (human, UniProt Q12884 26-760)", "assay": "SPR (Carterra LSA), antibody captured by anti-human Fc, FAP as analyte", "procedure": "as §1"}, "[4]": {"target": "T3, human LTBR endogenously expressed on cells (HepG2, A549, A375, HCC1187, RPMI-7951, primary human breast CAFs) (human, UniProt P36941 31-435)", "T3 construct": "also called lymphotoxin beta receptor; TNFRSF3", "T3 sequence (P36941 31-435)": "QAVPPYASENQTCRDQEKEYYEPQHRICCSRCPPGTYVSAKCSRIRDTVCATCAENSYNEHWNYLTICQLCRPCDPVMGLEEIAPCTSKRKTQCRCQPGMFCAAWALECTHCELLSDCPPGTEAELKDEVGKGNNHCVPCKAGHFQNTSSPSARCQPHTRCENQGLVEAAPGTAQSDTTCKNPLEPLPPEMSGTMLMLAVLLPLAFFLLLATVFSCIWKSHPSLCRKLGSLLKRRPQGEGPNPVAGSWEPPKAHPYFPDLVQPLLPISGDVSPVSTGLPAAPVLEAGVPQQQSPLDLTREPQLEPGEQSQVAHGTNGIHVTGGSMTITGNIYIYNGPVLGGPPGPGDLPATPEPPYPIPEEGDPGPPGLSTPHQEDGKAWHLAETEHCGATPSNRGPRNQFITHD", "assay": "flow cytometry, A549 cells", "procedure": "(§2) In short, 1×10⁶ cells were resuspended in the FACS buffer (1% BSA, 0.1% Sodium Azide in PBS), and 50 μl was added to each well (5×10⁴ cells/well) of a 96-U bottom plate. The cells were washed once and resuspended in 50 μl/well of FACS buffer containing a 1:3, 11-point series dilutions of constructs 4.1-4.6 and clones 4.8-4.9 followed by 1 h incubation at 4° C. […] Next, cells were washed and resuspended in FACS buffer and read on Beckman Coulter CytoFLEX. The data were analysed using FloJo V10 and GraphPad Prism v9. Clone 4.7 was tested for binding to A375 (LTBR positive cell line) and the HEK293-FAP overexpressing cell line, as described in examples 2.4 and 3.5. The EC50 values can be found in."}, "[5]": {"target": "T3, human LTBR endogenously expressed on …", "assay": "cell-based or functional assay"}, "[6]": {"target": "T1, human FAP expressed on cells …", "assay": "flow cytometry, FAP-CHO-K1 cells", "procedure": "as §2"}, "[7]": {"target": "T4, Biotinylated hLTBR-His-Avitag (Acro, cat no LTR-H82E9-25 µg) (human, UniProt P36941 31-227, biotinylated (Avitag))", "T4 construct": "bought protein loaded on SA Streptavidin biosensors", "T4 sequence (P36941 31-227 limits assumed)": "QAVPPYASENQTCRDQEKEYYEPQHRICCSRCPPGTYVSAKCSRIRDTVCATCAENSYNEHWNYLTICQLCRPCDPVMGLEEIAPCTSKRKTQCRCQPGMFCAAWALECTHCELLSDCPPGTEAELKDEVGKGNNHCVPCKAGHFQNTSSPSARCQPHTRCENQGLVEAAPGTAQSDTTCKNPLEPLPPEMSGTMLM", "assay": "BLI (Octet), biotinylated LTBR on SA sensor, antibody as analyte", "procedure": "Briefly, Biotinylated hLTBR-His-Avitag (Acro, cat no LTR-H82E9-25 μg) was loaded on SA Streptavidin biosensors (Fortebio) in kinetics buffer (ForteBio) followed by a 2-fold dilution series starting at 50 nM of FAP/LTBR bispecific antibodies. Binding kinetics were studied in a 1× Kinetics buffer where the association was allowed for 100 seconds, followed by dissociation for 300 seconds. Data generated were referenced by subtracting a parallel buffer blank, the baseline was aligned with the y-axis, inter-step correlation by alignment against dissociation was performed, and the data were smoothed by a Savitzky-Golay filter in the data analysis software. The processed data were fitted using a 1:1 Langmuir binding model with R\\hat{ }2 as a measurement of fitting accuracy. The KD and R\\hat{ }2 values can be found in."}, "[8]": {"target": "T5, human FAP (Acro, cat no FAP-H82Q6) (human, UniProt Q12884 26-760)", "T5 construct": "'FAP is naturally a dimeric antigen'", "assay": "BLI (Octet), antibody captured by anti-Fc, FAP as analyte; * value outside instrument specifications; avid binding to dimeric FAP; value flagged as outside instrument specifications", "procedure": "Binding to recombinant FAP proteins was investigated by Bio-Layer Interferometry (BLI) using the Octet instrument. Using standard amine coupling chemistry, an anti-Fc antibody was immobilised on the surface of ARG biosensors (Fortebio). The FAP/LTBR bispecific antibodies were loaded on the previously coated surface with anti-Fc capture antibody, followed by a 2-fold series dilution starting at 50 nM of either cyno FAP (Acro, cat no FAP-C82Q5) or human FAP (Acro, cat no FAP-H82Q6). Binding kinetics were studied in a 1× Kinetics buffer where the association was allowed for 200 seconds, followed by dissociation for 400 seconds. Sensor tips were regenerated using 10 mM Glycine pH 2.0. Data generated were referenced by subtracting a parallel buffer blank, the baseline was aligned with the y-axis, inter-step correlation by alignment against dissociation was performed, and the data were smoothed by a Savitzky-Golay filter in the data analysis software. The processed data were fitted using a 1:1 Langmuir binding model with R\\hat{ }2 as a measurement of fitting accuracy. The Results are summarised in. Avidity was observed as FAP is naturally a dimeric antigen, and the limited detection by Octet with these molecules has been reached. Species cross-reactivity has been confirmed for all test samples."}, "[9]": {"target": "T3, human LTBR endogenously expressed on …", "assay": "cell-based or functional assay", "remark": "listed apart in the source"}, "[10]": {"target": "cynomologus recombinant LTBR (Octet, Example 4.8) (cynomolgus (Macaca fascicularis), UniProt P36941 31-227 (human entry), limits assumed)", "sequence (P36941 other isoform, or with tags, fused parts or gaps limits assumed)": "as the sequence (P36941 31-227 limits assumed) above, with A2V, A7G, Q24R, I45S, N163D, K181R, L184S, P186S counted along it", "assay": "BLI (Octet), cyno LTBR immobilised on ARG sensor, antibody at 25 nM", "procedure": "A 2-fold series dilution starting at 50 nM of cynomologus recombinant LTBR was immobilised on the surface of ARG biosensors (Fortebio), followed by FAP/LTBR bispecific at 25 nM. Binding kinetics were studied in a 1× Kinetics buffer where the association was allowed for 180 seconds, followed by dissociation for 100 seconds. Sensor tips were regenerated using ethylene glycol. Data generated were referenced by subtracting a parallel buffer blank, the baseline was aligned with the y-axis, inter-step correlation by alignment against dissociation was performed, and the data were smoothed by a Savitzky-Golay filter in the data analysis software. The processed data were fitted using a 1:1 Langmuir binding model with R\\hat{ }2 as a measurement of fitting accuracy. The KD values can be found in."}, "[11]": {"target": "T3, human LTBR endogenously expressed on …", "assay": "cell-based or functional assay", "remark": "listed apart in the source"}, "[12]": {"target": "T3, human LTBR endogenously expressed on …", "assay": "cell-based or functional assay", "remark": "listed apart in the source"}, "[13]": {"target": "T3, human LTBR endogenously expressed on …", "assay": "cell-based or functional assay", "remark": "listed apart in the source"}, "[14]": {"target": "T6, mouse LTBR on cells (4T1 tumor cell line; primary mouse lung fibroblasts) (mouse, UniProt P50284 31-415)", "T6 sequence (P50284 31-415)": "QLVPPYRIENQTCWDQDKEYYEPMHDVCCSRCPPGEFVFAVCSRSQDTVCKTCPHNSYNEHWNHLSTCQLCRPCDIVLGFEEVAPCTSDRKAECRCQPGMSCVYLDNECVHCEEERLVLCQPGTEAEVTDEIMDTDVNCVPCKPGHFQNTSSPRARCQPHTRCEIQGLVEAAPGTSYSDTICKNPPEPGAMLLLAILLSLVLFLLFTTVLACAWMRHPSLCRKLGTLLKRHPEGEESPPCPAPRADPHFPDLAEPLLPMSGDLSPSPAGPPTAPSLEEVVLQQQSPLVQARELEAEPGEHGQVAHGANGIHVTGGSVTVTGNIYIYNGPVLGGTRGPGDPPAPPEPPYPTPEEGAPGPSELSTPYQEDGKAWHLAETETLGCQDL", "assay": "cell-based or functional assay"}, "[15]": {"target": "T6, mouse LTBR on cells (4T1 tumor cell …)", "assay": "cell-based or functional assay", "remark": "listed apart in the source"}},
  "data": [
    {"binder": "B1", "values": [
      {"measurement": "EC50", "setting": "[1]", "result": 0.6, "unit": "nM"},
      {"measurement": "Kd", "setting": "[2]", "result": 0.021, "unit": "nM"},
      {"measurement": "Kd", "setting": "[3]", "result": 0.023, "unit": "nM"}
    ]},
    {"binder": "B2", "values": [
      {"measurement": "EC50", "setting": "[4]", "result": 29, "unit": "nM"},
      {"measurement": "ICAM1 upregulation in CAFs monoculture assay EC50", "setting": "[5]", "result": 0.026, "unit": "nM"},
      {"measurement": "EC50", "setting": "[6]", "result": 0.28, "unit": "nM"},
      {"measurement": "Kd", "setting": "[7]", "result": 4, "unit": "nM"},
      {"measurement": "Kd", "setting": "[8]", "result": 0.182, "unit": "nM"},
      {"measurement": "CCL19 upregulation, HCC1187:CAF Co-culture EC50", "setting": "[9]", "result": 0.055, "unit": "nM"},
      {"measurement": "Kd", "setting": "[10]", "result": 7.7, "unit": "nM"},
      {"measurement": "HepG2 Reporter assay, HepG2:FAP-CHO-K1 Co-culture EC50", "setting": "[11]", "result": 0.07, "unit": "nM"},
      {"measurement": "chemokine (CCL5) induction in RPMI-7951 EC50", "setting": "[12]", "result": 0.09, "unit": "nM"},
      {"measurement": "HCC-1187:RPMI7951 (cis-activation) co-culture assay CCL5 read-out EC50", "setting": "[13]", "result": 0.052, "unit": "nM"},
      {"measurement": "HCC-1187:RPMI7951 (trans-activation) co-culture assay, CCL19 Read-out EC50", "setting": "[13]", "result": 0.084, "unit": "nM"}
    ]},
    {"binder": "B3", "values": [
      {"measurement": "4T1:CHO-FAP co-culture CCL5 read-out EC50", "setting": "[14]", "result": 0.28, "unit": "nM"},
      {"measurement": "4T1:CHO-FAP co-culture CCL5 read-out EC50, 4.14 + cross-linking antibody", "setting": "[14]", "result": 0.096, "unit": "nM"},
      {"measurement": "4T1 monoculture CCL5 read-out EC50", "setting": "[14]", "result": 0.47, "unit": "nM"},
      {"measurement": "4T1 monoculture CCL5 read-out EC50, 4.14 + cross-linking antibody", "setting": "[14]", "result": 0.14, "unit": "nM"},
      {"measurement": "ICAM1 induction in PMLF EC50", "setting": "[15]", "result": 0.063, "unit": "nM"},
      {"measurement": "ICAM1 induction in PMLF EC50, 4.14 + cross-linking antibody", "setting": "[15]", "result": 0.021, "unit": "nM"}
    ]}
  ]
}
